This note sets out measurements from paper PMC4782999, “The Inhibitory Effect of Non-Substrate and Substrate DNA on the Ligation and Self-Adenylylation Reactions Catalyzed by T4 DNA Ligase”.

Common to all, as to settings: protein: commercial; blunt, no nick
For data set [1], the target named is T1, T4 DNA ligase (UniProt P00970 1-487).
T1 sequence: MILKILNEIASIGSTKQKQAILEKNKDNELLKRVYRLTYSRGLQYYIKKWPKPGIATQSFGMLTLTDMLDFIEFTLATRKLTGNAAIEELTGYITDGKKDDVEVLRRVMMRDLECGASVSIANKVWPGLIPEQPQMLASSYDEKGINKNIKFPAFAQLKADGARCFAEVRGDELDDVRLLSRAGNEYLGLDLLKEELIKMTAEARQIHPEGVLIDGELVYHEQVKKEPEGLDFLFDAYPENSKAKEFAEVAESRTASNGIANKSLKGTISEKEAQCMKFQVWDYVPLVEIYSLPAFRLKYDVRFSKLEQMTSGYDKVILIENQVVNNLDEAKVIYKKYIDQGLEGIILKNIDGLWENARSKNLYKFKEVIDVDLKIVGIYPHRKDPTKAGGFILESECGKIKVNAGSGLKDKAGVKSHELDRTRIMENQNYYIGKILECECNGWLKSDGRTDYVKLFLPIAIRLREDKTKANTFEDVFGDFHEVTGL
In words: competition (nick-ligation inhibition); Ki x N sites; per binding site, N~100, assumed 24 bp footprint; derived from the Ki; EMSA: 50 mM Tris pH 7.5, 5 mM DTT, 5 mM Mg2+, 1 mM sodium pyrophosphate, 5% glycerol, room temperature (22 C), 20 min; ligation competition: 50 mM Tris-HCl pH 7.5, 1 mM ATP, 10 mM MgCl2, 10 mM DTT, 16 C. In general terms: A gel shift assay detects complexes by their altered migration in electrophoresis.

Data set [2] deals with T1, T4 DNA ligase. In words: competition (nick-ligation inhibition, competitive fit); 20 nM FAM-labeled nicked substrate, 25 pM ligase, 1 mM ATP, 10 mM Mg2+, 16 C; EMSA: 50 mM Tris pH 7.5, 5 mM DTT, 5 mM Mg2+, 1 mM sodium pyrophosphate, 5% glycerol, room temperature (22 C), 20 min; ligation competition: 50 mM Tris-HCl pH 7.5, 1 mM ATP, 10 mM MgCl2, 10 mM DTT, 16 C.
Data set [3] addresses T1, T4 DNA ligase. In words: competition (nick-ligation inhibition, competitive fit); 1 mM ATP, 10 mM Mg2+; EMSA: 50 mM Tris pH 7.5, 5 mM DTT, 5 mM Mg2+, 1 mM sodium pyrophosphate, 5% glycerol, room temperature (22 C), 20 min; ligation competition: 50 mM Tris-HCl pH 7.5, 1 mM ATP, 10 mM MgCl2, 10 mM DTT, 16 C.
Data set [4] concerns the target T1, T4 DNA ligase. In words: competition (nick-ligation inhibition); Ki x N sites; per binding site, N=34, assumed 24 bp footprint; derived from the Ki; EMSA: 50 mM Tris pH 7.5, 5 mM DTT, 5 mM Mg2+, 1 mM sodium pyrophosphate, 5% glycerol, room temperature (22 C), 20 min; ligation competition: 50 mM Tris-HCl pH 7.5, 1 mM ATP, 10 mM MgCl2, 10 mM DTT, 16 C.

B1: I-75-dsDNA (dsDNA)
DNA 1: AGAGAAGATGACTACTGAGTTGTGCGATCCCTGCACTTCAGCTAAGGAAGCTACCAATATTTAGTTTCCGAGTCT
DNA 2: AGACTCGGAAACTAAATATTGGTAGCTTCCTTAGCTGAAGTGCAGGGATCGCACAACTCAGTAGTCATCTTCTCT
The Kd is the constant that tells how readily two partners part at equilibrium. Read a high Kd as a looser complex. As usually defined, the Ki is the dissociation constant of the complex between target and ligand, obtained from inhibition or displacement. A high value points to a looser hold on the target. For B1, the Kd with T4 DNA ligase [1] is 10 ± 2 µM. In addition, the Ki with T4 DNA ligase [2] stood at 100 ± 20 nM.

B2: I-40-dsDNA (dsDNA)
DNA 1: CACATATGAGAAGGTATTTGCCCGATAATCAATACTCCAG
DNA 2: CTGGAGTATTGATTATCGGGCAAATACCTTCTCATATGTG
With B2, the affinity in the data set with T4 DNA ligase [3], expressed as Ki, was 200 ± 30 nM. Also, in the data set with T4 DNA ligase [4], the affinity, expressed as Kd, was 7 ± 1 µM.
